Measured values taken from patent publication US20250215100A1 (HARBOUR BIOMED SHANGHAI, published 2025).

B1: PR003379 (antibody, human IgG2, kappa)
heavy: QVQLVQSGAEVKKPGASVKVSCKASGYTFAGYYMYWVRQAPGQGLEWMGWINPDSGAPTYAQKFQGRVTMTRDTSISTAYMELSRLRSDDTAVYYCAREKIYYGSGNYYPSFDYWGQGTLVTVSSASTKGPSVFPLAPCSRSTSESTAALGCLVKDYFPEPVTVSWNSGALTSGVHTFPAVLQSSGLYSLSSVVTVPSSNFGTQTYTCNVDHKPSNTKVDKTVERKCCVECPPCPAPPVAGPSVFLFPPKPKDTLMISRTPEVTCVVVDVSHEDPEVQFNWYVDGVEVHNAKTKPREEQFNSTFRVVSVLTVVHQDWLNGKEYKCKVSNKGLPAPIEKTISKTKGQPREPQVYTLPPSREEMTKNQVSLTCLVKGFYPSDIAVEWESNGQPENNYKTTPPMLDSDGSFFLYSKLTVDKSRWQQGNVFSCSVMHEALHNHYTQKSLSLSPGK
light: DIQLTQSPSFLSASVGDRVTITCRASQGISSYLAWYQQKPGKAPKLLIYAASTLQSGVPSRFSGSGSGTEFTLTISSLQPEDFATYYCQQLNSYPWTFGQGTKVEIKRTVAAPSVFIFPPSDEQLKSGTASVVCLLNNFYPREAKVQWKVDNALQSGNSQESVTEQDSKDSTYSLSSTLTLSKADYEKHKVYACEVTHQGLSSPVTKSFNRGEC
notes: Fully human recombinant IgG2, kappa light chain; from Harbour H2L2 mice; also called 18C4A12-1B1 (clone No.)
B2: PR001306 (CDX-1140) (antibody, human IgG2, kappa, V domains shown)
VH: QVQLVESGGGVVQPGKSLRLSCAASGFTFSSNGIHWVRQAPGKGLEWVAVIWSDGSNKFYADSVKGRFTISRDNSKNTLYLQMNSLRAEDTAVYYCARASGSGSYYNFFDYWGQGTLVTVSS
VL: EIVMTQSPATLSVSPGERATLSCRASQSVRSNLAWYQQKPGQAPRLLIYGASTRATGIPARFSGSGSGTEFTLTINSLQSEDFAVYYCQQHNKWITFGQGTRLEIKR
notes: CD40 positive control antibody
B3: PR001028 (Selicrelumab) (antibody, human IgG2, kappa, V domains shown)
VH: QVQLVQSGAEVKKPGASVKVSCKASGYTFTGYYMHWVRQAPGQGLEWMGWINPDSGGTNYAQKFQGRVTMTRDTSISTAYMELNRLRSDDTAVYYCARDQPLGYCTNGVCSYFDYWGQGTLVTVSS
VL: DIQMTQSPSSVSASVGDRVTITCRASQGIYSWLAWYQQKPGKAPNLLIYTASTLQSGVPSRFSGSGSGTDFTLTISSLQPEDFATYYCQQANIFPLTFGGGTKVEIKR
notes: as for B2
B4: PR001304 (APX005M) (antibody, human IgG1, kappa)
heavy: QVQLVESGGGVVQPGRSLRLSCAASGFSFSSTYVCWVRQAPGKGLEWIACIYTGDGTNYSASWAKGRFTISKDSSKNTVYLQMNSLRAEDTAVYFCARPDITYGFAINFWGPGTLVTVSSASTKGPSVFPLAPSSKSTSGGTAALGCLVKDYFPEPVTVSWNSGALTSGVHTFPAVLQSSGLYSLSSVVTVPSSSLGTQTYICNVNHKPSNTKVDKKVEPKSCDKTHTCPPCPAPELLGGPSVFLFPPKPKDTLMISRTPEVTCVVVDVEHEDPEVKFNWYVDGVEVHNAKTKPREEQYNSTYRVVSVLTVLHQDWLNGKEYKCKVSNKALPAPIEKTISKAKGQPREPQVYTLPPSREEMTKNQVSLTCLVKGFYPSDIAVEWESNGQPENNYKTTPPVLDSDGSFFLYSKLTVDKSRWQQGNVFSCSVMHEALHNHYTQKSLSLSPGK
light: DIQMTQSPSSLSASVGDRVTIKCQASQSISSRLAWYQQKPGKPPKLLIYRASTLASGVPSRFSGSGSGTDFTLTISSLQPEDVATYYCQCTGYGISWPIGGGTKVEIKRTVAAPSVFIFPPSDEQLKSGTASVVCLLNNFYPREAKVQWKVDNALQSGNSQESVTEQDSKDSTYSLSSTLTLSKADYEKHKVYACEVTHQGLSSPVTKSFNRGEC
notes: as for B2

What follows are binders tested against T1, human CD40 on cells (human, UniProt P25942 21-277) (assay: cell-based or functional assay).
T1 sequence (P25942 21-277): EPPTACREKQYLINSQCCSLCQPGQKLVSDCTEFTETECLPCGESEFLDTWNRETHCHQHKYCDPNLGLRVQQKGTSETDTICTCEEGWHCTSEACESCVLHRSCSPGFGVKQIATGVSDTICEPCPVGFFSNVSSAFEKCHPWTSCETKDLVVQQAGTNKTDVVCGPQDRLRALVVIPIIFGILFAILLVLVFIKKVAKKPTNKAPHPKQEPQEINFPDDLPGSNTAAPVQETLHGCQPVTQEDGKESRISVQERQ
B1 was tested, and the “EC50 (nM), crosslinked (CHO-K1/hCD32B), HEK293-hCD40-NFkB reporter” value (“EC50 (nM), crosslinked (CHO-K1/hCD32B)” below) was 0.178 nM, the “EC50 (nM), uncrosslinked, HEK293-hCD40-NFkB reporter” value (“EC50 (nM), uncrosslinked” for short) was 0.369 nM and the “Maximum RLU, crosslinked (CHO-K1/hCD32B), HEK293-hCD40-NFkB reporter” value (“Maximum RLU, crosslinked (CHO-K1/hCD32B)” below) was 19700 RLU. The “Maximum RLU, uncrosslinked, HEK293-hCD40-NFkB reporter” value (shortened to “Maximum RLU, uncrosslinked”) was 8250 RLU and the “RLU fold (crosslinked/uncrosslinked)” value was 2.38 fold.
B2 was tested, and the “EC50 (nM), crosslinked (CHO-K1/hCD32B)” value was 0.0506 nM, the “EC50 (nM), uncrosslinked” value was 0.0371 nM and the “Maximum RLU, crosslinked (CHO-K1/hCD32B)” value was 22600 RLU. For the same binder, the “Maximum RLU, uncrosslinked” value was 20000 RLU and the “RLU fold (crosslinked/uncrosslinked)” value was 1.13 fold.
In the case of B3, the “EC50 (nM), crosslinked (CHO-K1/hCD32B)” value is reported as 0.0413 nM, the “EC50 (nM), uncrosslinked” value is reported as 0.163 nM and the “Maximum RLU, crosslinked (CHO-K1/hCD32B)” value is reported as 17000 RLU. The “Maximum RLU, uncrosslinked” value was 13400 RLU and the “RLU fold (crosslinked/uncrosslinked)” value was 1.28 fold.
For B4, the “EC50 (nM), crosslinked (CHO-K1/hCD32B)” value was 0.042 nM, the “EC50 (nM), uncrosslinked” value was 0.355 nM and the “Maximum RLU, crosslinked (CHO-K1/hCD32B)” value was 23200 RLU. The “Maximum RLU, uncrosslinked” value was 11900 RLU and the “RLU fold (crosslinked/uncrosslinked)” value was 1.95 fold.

The binders below were run against T1, human CD40 on cells (assay: FACS, Raji cells).
Outline: (§1)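 Antibody binding to CHO-K1/hCD40, CHO-K1/cyCD40 or Raji cells, 8 concentrations, 5-fold dilutions from 300 nM final, 1 h at 4° C. in the dark. Detection with Alexa Fluor 488 anti-human IgG, flow cytometry; EC50 from four-parameter nonlinear fit; hIgG negative control.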
In the case of B1, the EC50 is reported as 0.0699 nM and the “Maximum MFI” value is reported as 3700 MFI.
In the case of B2, the EC50 is reported as 0.028 nM and the “Maximum MFI” value is reported as 614 MFI.
In the case of B3, the EC50 is reported as 0.484 nM and the “Maximum MFI” value is reported as 2450 MFI.

The binders below were run against T1, human CD40 on cells (assay: FACS, inhibition of human CD40L-his binding to CHO-K1/hCD40 cells).
Procedure: To detect the effect of CD40 antibodies on the binding of CD40 to CD40L, CHO-K1/hCD40 cells were plated at 2×10⁵/well or 100 μL/well into a 96-well plate (Corning, #3799) and centrifuged, and the supernatant was taken and the dilution solution of the antigen binding protein to be tested was added at 50 μL/well with an initial concentration of 500 nM, 5-fold concentration dilution and a total of 8 concentrations. 20 μg/mL of human CD40L-his protein (Sino biological, #10239-H08E) was added at 50 μL/well, the cells were incubated at 4° C. for 1 hour and then washed 3 times with FACS buffer (1×PBS with 2% FBS). 1:400 diluted anti-histidine tag secondary antibody (GenScript, #A01800) was added, and the cells were incubated at 4° C. for 1 hour, then washed 2 times with FACS buffer, and resuspended in pre-chilled PBS. The fluorescence signal values were read using a BD FACS CANTOII flow cytometer or ACEA NovoCyte flow cytometer, and the data were processed and analyzed using FlowJo v10 software (FlowJo, LLC).
Data processing and graphical analysis were performed using GraphPad Prism 8 software. The curve of the antibody concentration-dependent inhibition rate and parameters, such as IC50 value were obtained by four-parameter nonlinear fitting.
With B1 the IC50 was 17 nM and the “Maximum inhibition rate (%)” value was 41.9%.
For B2, the IC50 was 4.4 nM and the “Maximum inhibition rate (%)” value was 24%.
B4 was tested, and the IC50 was 10 nM and the “Maximum inhibition rate (%)” value was 26%.

What follows are binders tested against T2, human CD40 protein (human, UniProt P25942 21-193, limits assumed) (assay: BLI (Octet Red 96e), antibody captured on AHC sensor, human CD40 protein in solution, 1:1 global fit).
T2 construct: the construct is not described
T2 sequence (P25942 21-193 limits assumed): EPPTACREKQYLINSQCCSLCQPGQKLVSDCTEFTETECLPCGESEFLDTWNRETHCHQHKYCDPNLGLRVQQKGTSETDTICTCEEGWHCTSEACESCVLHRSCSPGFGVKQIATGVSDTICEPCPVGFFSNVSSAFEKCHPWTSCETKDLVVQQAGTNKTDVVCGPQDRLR
Procedure: To detect the affinity of CD40 antibodies for antigens such as human CD40 protein, the binding kinetics between antigen and antibody was analyzed using an Octet Red 96e (Fortebio) molecular interaction analyzer by biolayer interferometry (BLI) technique.
For determining the affinity of antibodies for antigens, the rotary speed of the sensor was set at 1000 rpm. […] The AHC sensors were finally regenerated by immersing in a 10 mM glycine-hydrochloric acid solution with pH 1.5 to elute the protein bound to the sensors.
For data analysis using Octet Data Analysis software (Fortebio, version 11.0), 0 nM well was used as the reference well, reference subtraction was performed, “1:1 Global fitting” method was selected for data fitting, the kinetic parameters of the binding of the antigen to the CD40 antibodies were calculated, and the kon (1/Ms) value, kdis (1/s) value and KD (M) value were obtained.
In the case of B1, the Kd is reported as 0.138 nM, the koff is reported as 0.000144 s⁻¹ and the kon is reported as 1.04e+06 M⁻¹ s⁻¹.
With B2 the Kd was 0.525 nM, the koff was 0.00057 s⁻¹ and the kon was 1.09e+06 M⁻¹ s⁻¹.
B3 showed a Kd of 4.5 nM, a koff of 0.00048 s⁻¹ and a kon of 107000 M⁻¹ s⁻¹.
B4 showed a Kd of 7.14 nM, a koff of 0.00264 s⁻¹ and a kon of 369000 M⁻¹ s⁻¹.

What follows are binders tested against T3, cynomolgus monkey CD40 on cells (cynomolgus monkey, UniProt G7PG38 21-278) (assay: FACS, CHO-K1/cyCD40 cells).
T3 construct: also called cyCD40; CHO-K1/cyCD40
T3 sequence (G7PG38 entry or part of it limits assumed): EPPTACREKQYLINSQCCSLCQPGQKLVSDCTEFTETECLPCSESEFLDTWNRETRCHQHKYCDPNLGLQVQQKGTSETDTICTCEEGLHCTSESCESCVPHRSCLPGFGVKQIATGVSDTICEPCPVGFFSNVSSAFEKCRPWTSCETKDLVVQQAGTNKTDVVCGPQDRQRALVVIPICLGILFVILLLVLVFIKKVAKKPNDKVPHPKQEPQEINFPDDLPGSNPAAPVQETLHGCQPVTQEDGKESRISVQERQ
Outline: as §1
In the case of B1, the EC50 is reported as 3.88 nM and the “Maximum MFI” value is reported as 117000 MFI.
In the case of B2, the EC50 is reported as 5.54 nM and the “Maximum MFI” value is reported as 39700 MFI.
With B3 the EC50 was 5.97 nM and the “Maximum MFI” value was 106000 MFI.

These binders were tested against T1, human CD40 on cells (assay: FACS, CHO-K1/hCD40 cells).
Outline: as §1
With B1 the EC50 was 6.34 nM and the “Maximum MFI” value was 81600 MFI.
For B2, the EC50 was 12.2 nM and the “Maximum MFI” value was 29200 MFI.
In the case of B3, the EC50 is reported as 10.3 nM and the “Maximum MFI” value is reported as 85000 MFI.
